Assay results taken from patent publication US8394770B2 (priority 2007, dated 2013).
Like-named read-outs stand apart in the source and are kept apart here. Positions of bridges follow the written chain, without caps; N, C: chain ends. No end group written: not given here.

Experiments:
[1] = test system: DP-BB/W rats; conditions: repeated daily administration, assayed at 110 days of age, vs vehicle; cited from earlier work
[2] = electrophysiological experiments; cited from earlier work
[3] = test system: rat brain synaptosomes; conditions: binding to rat brain synaptosomes; cited from earlier work
[4] = target: T1, hKv1.3 channels (Homo sapiens, UniProt P22001); experiment: Whole-cell patch-clamp block of hKv1.3 channels endogenously expressed in human peripheral blood T cells; format: cell-based; set-up: channels expressed endogenously in human peripheral blood T cells; endogenous in cells; host or cells: human peripheral blood T lymphocytes from healthy volunteers, PHA-stimulated
[5] = test system: mice; experiment: In vivo toxicity / lethality test by injection into mice; conditions: injected, up to 10,000 microgram per 20 gram mouse weight (so in the source)
[6] = target: T2, hKv1.2 (Homo sapiens, UniProt P16389); experiment: Patch-clamp block of hKv1.2 channels expressed in Cos-7 cells
[7] = target: mKv1.1 (Mus musculus, UniProt P16388); experiment: Patch-clamp block of mKv1.1 channels stably expressed in L929 cells; conditions: 10 nM
[8] = target: hIKCa1 (Homo sapiens, UniProt O15554); experiment: Patch-clamp block of recombinant hIKCa1 channels expressed in Cos-7 cells (voltage ramps); conditions: 10 nM
Procedure: The current carried by IKCa1 channels can be measured using a pipette filling solution having 1 μM free Ca^2+ concentration, which is sufficient to fully activate these channels [Grissmer et al., 1993].
Cos-7 cells were maintained in standard cell culturing conditions [Bagdany at al, 2005]. […] The normal extracellular solution is the same as described above. […] This solution contained 1 μM free Ca^2+ concentration to fully activate the hIKCa1 current. All other recording conditions (data acquisition, perfusion etc.) were identical to the description above for Kv1.3 channels.
Two hundred millisecond-long voltage ramps from −120 mV to +50 mV from a holding potential of −120 mV were used to elicit hIKCa1 currents in Cos-7 cells (ramp speed 0.85 mV/ms). Voltage ramps were run every 10 s. […] The reversal potential of the current is −75 mV, which is characteristic to a K^+ conductance based on the ionic composition of the recording solutions. For IKCa1 currents the slope (s) of the linear current-voltage relationship can be used to characterize the current block [Grissmer et al., 1993]. […] Error bars indicate SEM for n=3 independent experiments.

[9] = target: T1, hKv1.3 channels
[10] = target: T2, hKv1.2
[11] = target: T1, hKv1.3 channels; remark: listed apart in the source
[12] = target: mKv1.1 channel (Mus musculus (Mouse)) (UniProt P16388)
[13] = target: T3, hKv1.3 channel (human, UniProt P22001)
[14] = target: hIKCa1 channel (EGFP-tagged) (human) (UniProt O15554); experiment: ratio of Kd values from patch clamp, reference hKv1.3
[15] = target: mKv1.1 channel (Mus musculus (Mouse), UniProt P16388); experiment: as above
[16] = target: hKv1.2 channel (human, UniProt P16389); experiment: as above
[17] = target: T3, hKv1.3 channel; experiment: patch clamp on human lymphocytes (summary of the result)
[18] = target: T3, hKv1.3 channel; experiment: whole-cell patch clamp; recovery of hKv1.3 current on wash-out after 3 pM Vm24

T1 sequence (P22001 whole entry): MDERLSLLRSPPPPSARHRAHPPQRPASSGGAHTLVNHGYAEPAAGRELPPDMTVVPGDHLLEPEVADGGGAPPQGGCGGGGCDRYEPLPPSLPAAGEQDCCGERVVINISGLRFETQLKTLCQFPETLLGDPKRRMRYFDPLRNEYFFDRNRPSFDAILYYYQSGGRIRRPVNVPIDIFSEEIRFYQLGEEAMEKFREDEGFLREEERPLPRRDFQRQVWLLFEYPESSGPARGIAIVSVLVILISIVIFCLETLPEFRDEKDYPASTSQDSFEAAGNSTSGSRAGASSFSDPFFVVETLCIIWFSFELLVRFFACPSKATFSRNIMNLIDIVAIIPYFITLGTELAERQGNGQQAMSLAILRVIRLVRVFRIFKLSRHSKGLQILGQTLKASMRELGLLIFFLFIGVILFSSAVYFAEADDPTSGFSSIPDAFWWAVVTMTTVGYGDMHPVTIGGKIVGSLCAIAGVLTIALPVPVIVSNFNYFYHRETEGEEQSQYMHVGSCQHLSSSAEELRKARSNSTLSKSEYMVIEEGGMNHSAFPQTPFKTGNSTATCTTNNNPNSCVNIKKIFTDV
T2 sequence (P16389 whole entry): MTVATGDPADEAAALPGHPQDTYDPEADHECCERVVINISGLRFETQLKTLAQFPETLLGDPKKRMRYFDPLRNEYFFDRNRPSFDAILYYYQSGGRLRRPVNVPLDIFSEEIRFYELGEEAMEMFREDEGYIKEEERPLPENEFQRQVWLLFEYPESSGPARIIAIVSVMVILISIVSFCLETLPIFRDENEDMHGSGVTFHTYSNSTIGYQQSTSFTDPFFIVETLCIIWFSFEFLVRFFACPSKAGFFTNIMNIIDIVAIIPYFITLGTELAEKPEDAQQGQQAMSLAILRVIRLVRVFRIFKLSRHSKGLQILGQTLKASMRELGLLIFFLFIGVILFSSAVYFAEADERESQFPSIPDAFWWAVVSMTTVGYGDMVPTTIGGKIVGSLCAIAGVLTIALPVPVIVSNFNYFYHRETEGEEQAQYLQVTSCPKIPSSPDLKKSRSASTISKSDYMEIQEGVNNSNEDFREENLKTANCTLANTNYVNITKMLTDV
Sequence of hIKCa1 (O15554 whole entry): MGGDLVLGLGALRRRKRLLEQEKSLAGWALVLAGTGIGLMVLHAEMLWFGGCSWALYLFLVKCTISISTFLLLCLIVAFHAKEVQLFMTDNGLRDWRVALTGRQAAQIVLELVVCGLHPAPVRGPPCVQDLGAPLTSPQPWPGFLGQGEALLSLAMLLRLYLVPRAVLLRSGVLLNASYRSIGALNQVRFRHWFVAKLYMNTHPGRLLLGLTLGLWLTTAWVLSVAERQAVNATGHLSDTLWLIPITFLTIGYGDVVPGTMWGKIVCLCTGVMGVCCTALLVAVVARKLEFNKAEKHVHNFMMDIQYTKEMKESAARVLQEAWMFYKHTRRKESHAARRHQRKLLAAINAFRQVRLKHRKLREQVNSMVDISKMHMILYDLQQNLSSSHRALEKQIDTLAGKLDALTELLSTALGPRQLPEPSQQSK
Sequence of mKv1.1 (P16388 whole entry): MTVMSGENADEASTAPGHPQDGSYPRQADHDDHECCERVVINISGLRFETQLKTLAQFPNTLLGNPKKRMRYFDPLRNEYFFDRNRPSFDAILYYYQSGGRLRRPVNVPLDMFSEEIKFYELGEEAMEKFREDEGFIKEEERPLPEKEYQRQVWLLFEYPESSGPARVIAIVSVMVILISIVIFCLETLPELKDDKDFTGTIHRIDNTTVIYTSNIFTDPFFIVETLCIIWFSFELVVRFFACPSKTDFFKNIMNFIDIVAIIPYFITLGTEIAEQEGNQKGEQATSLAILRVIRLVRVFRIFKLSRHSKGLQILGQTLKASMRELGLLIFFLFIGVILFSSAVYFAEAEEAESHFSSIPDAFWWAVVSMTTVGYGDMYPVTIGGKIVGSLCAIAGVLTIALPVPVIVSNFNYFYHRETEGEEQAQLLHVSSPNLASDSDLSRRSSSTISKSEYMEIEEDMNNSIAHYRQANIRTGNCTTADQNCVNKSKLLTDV
Sequence of hIKCa1 channel (EGFP-tagged) (human) (O15554 whole entry): as the sequence (O15554 whole entry) above
Sequence of mKv1.1 channel (Mus musculus (Mouse)) (P16388 whole entry): as the sequence (P16388 whole entry) above

O=c1ccc2c(OCCCCOc3ccccc3)c3ccoc3cc2o1 [PAP-1]
reduction of the fraction of rats showing symptoms of EAD [1]: ~50%

HsTx1: toxin of the scorpion Heterometrus spinnifer, SEQ ID NO: 6
potency of amidated form relative to free-carboxyl-terminal form [2]: 5 fold | activity of amidated form relative to free-carboxyl-terminal form [3]: up to 300 fold

sVm24: chemically synthesized, correctly folded Vm24; primary sequence identical to the natural peptide (AAAISCVGSPECPPKCRAQGCKNGKCMNRKCKCYYC-NH2; not fully specified (bridges); also: disulfide pairing as native peptide (not given here))
block of hKv1.3 current ([4]; 100 pM): > 90% | block of hKv1.3 current (words) ([4]; 100 pM): almost completely disappeared | potency in blocking hKv1.3 compared with natural toxin ([4]; RCF at 100 pM, t-test p=0.57): as potent as the natural toxin

Vm23: 35 amino acid peptide from V. mexicanus venom, SEQ ID NO:1, four disulfide bridges, 83% identical to Vm24 (AAAISCVGSKECLPKCKAQGCKSGKCMNKKCKCYC; not fully specified (bridges); also: four disulfide bridges (pairing not given here))
toxicity in experimental animals [5]: not toxic | current inhibition hKv1.2 ([6]; 10 nM): ~9% | time for equilibrium block of hKv1.2 to develop ([6]; 10 nM): 3.5 min | remaining current fraction (RCF) hKv1.2 ([6]; 10 nM, n=3): 0.91±0.02 | reversibility of hKv1.2 block ([6]; after 10 nM, wash-out): not readily reversible within 2 min | block of mKv1.1 [7]: practically does not block | current inhibition mKv1.1 [7]: ~3% | block of hIKCa1 [8]: practically does not block | current inhibition hIKCa1 [8]: ~1% | blockage of hKv1.3 current ([4]; 10 nM): approximately 95% | time for equilibrium block of hKv1.3 to develop ([4]; 10 nM): 3.5 min | block of hKv1.3 current (words) ([4]; 10 nM, within 3.5 min): almost completely disappeared | relief of hKv1.3 block on wash-out ([4]; after 10 nM, within 2 minutes): did not result in a significant relief

B1: Vm23 (peptide)
peptide: AAAISCVGSKECLPKCKAQGCKSGKCMNKKCKCYC-OH
modifications: disulfide (positions not given here); also: four disulfide bridges, pairing not given here (assumed as in Vm24)
blockage of the current at 10 nM Vm23 [9]: 95%

B2: Vm24 (peptide)
peptide: AAAISCVGSPECPPKCRAQGCKNGKCMNRKCKCYYC-NH2
modifications: disulfide 12-31, 16-33, 21-36, 6-26; N-terminus assumed
SMILES: CC[C@H](C)[C@H](NC(=O)[C@H](C)NC(=O)[C@H](C)NC(=O)[C@H](C)N)C(=O)N[C@@H](CO)C(=O)N[C@H]1CSSC[C@@H]2NC(=O)[C@H](CCCCN)NC(=O)CNC(=O)[C@H](CC(N)=O)NC(=O)[C@H](CCCCN)NC(=O)[C@@H]3CSSC[C@@H](C(N)=O)NC(=O)[C@H](Cc4ccc(O)cc4)NC(=O)[C@H](Cc4ccc(O)cc4)NC(=O)[C@@H]4CSSC[C@H](NC(=O)[C@H](CCCCN)NC(=O)[C@@H]5CCCN5C(=O)[C@@H]5CCCN5C(=O)[C@H](CSSC[C@H](NC(=O)[C@H](CCCCN)NC(=O)[C@H](CCCNC(=N)N)NC(=O)[C@H](CC(N)=O)NC(=O)[C@H](CCSC)NC2=O)C(=O)N[C@@H](CCCCN)C(=O)N4)NC(=O)[C@H](CCC(=O)O)NC(=O)[C@@H]2CCCN2C(=O)[C@H](CO)NC(=O)CNC(=O)[C@H](C(C)C)NC1=O)C(=O)N[C@@H](CCCNC(=N)N)C(=O)N[C@@H](C)C(=O)N[C@@H](CCC(N)=O)C(=O)NCC(=O)N3
remaining current fraction (RCF) at 10 nM Vm24 [10]: 0.54 RCF | remaining current fraction (RCF) of whole-cell hKv1.3 current at 10 nM Vm24 [11]: 0.01 RCF | remaining current fraction (RCF) at 10 nM Vm24 [12]: 0.8 RCF | Kd [13]: 2.9 pM | selectivity for hKv1.3 over hIKCa1 [14]: > 4500 fold | selectivity for hKv1.3 over mKv1.1 [15]: ≥ 10000 fold | selectivity for hKv1.3 over hKv1.2 [16]: ≥ 1500 fold | Kd [17]: < 3 pM | koff [18]: ~0.00026 s⁻¹
